One experiment concerns the target HLA-B*15:02. The experiment can be described thus: IEDB peptide-MHC binding, purified MHC/competitive/fluorescence; filed as Kd, often an IC50 or EC50 that approximates it; ≥ and ≤ were set here for values at or beyond the usual limits of such assays.
The target of another experiment is HLA-A*68:23. The description is as above.
For a further experiment, the target named is HLA-A*32:15. The experiment is described as above.
The next experiment has as its target HLA-C*06:02. Described as above.
Experiment [1] deals with HLA-B*15:01. Described as above.
A further experiment concerns the target HLA-B*40:13. Described as above.
The target in the next experiment is HLA-B*58:01. The experiment is described as above. As to conditions: source organism: Yersinia pestis Nepal516.
A further experiment addresses HLA-A*32:07. Described as above. As to conditions: source organism: Yersinia pestis Nepal516.
The target in a further experiment is HLA-A*24:02. The description is as above. As to conditions: source organism: Yersinia pestis Nepal516.
The target of a further experiment is HLA-B*45:06. The description is as above.
The next experiment deals with HLA-B*83:01. The description is as above.
The next experiment deals with HLA-B*15:42. Described as above.
For a further experiment, the target named is HLA-A*02:01. The description is as above.
Experiment [2] deals with HLA-B*51:01. Described as above.
In another experiment the target is HLA-A*24:03. Described as above.
The target in the next experiment is HLA-B*39:01. The description is as above.
The next experiment addresses HLA-A*02:19. The experiment is described as above.
Another experiment deals with HLA-B*18:01. Described as above.
Another experiment concerns the target HLA-A*26:01. Described as above.
A further experiment addresses HLA-B*57:01. The experiment is described as above.
The target in the next experiment is HLA-A*02:11. The experiment is described as above.
Another experiment deals with HLA-A*03:01. The description is as above.
The target in a further experiment is HLA-A*23:01. The experiment is described as above.
The next experiment has as its target HLA-B*46:01. The description is as above.
Another experiment addresses HLA-B*15:17. The experiment is described as above.
The target in another experiment is HLA-B*27:03. The description is as above.
A further experiment concerns the target HLA-A*29:02. The description is as above.
The next experiment has as its target HLA-A*02:03. Described as above.
A further experiment deals with HLA-A*02:12. The description is as above.
The target of another experiment is HLA-C*14:02. Described as above. As to conditions: source organism: human gammaherpesvirus 4.
Another experiment deals with HLA-B*27:20. The experiment is described as above. The settings on record: source organism: human gammaherpesvirus 4.
Another experiment concerns the target HLA-C*05:01. The experiment can be described thus: IEDB peptide-MHC binding, purified MHC/direct/fluorescence; filed as Kd, often an IC50 or EC50 that approximates it; ≥ and ≤ were set here for values at or beyond the usual limits of such assays.
In another experiment the target is HLA-C*12:03. The experiment is described as above.
For another experiment, the target named is HLA-B*48:01. The experiment can be described thus: IEDB peptide-MHC binding, purified MHC/competitive/fluorescence; filed as Kd, often an IC50 or EC50 that approximates it; ≥ and ≤ were set here for values at or beyond the usual limits of such assays. As to conditions: source organism: Yersinia pestis Nepal516.
Experiment [3] deals with HLA-B*51:01. The experiment can be described thus: IEDB peptide-MHC binding, purified MHC/direct/fluorescence; filed as Kd, often an IC50 or EC50 that approximates it; ≥ and ≤ were set here for values at or beyond the usual limits of such assays. As to conditions: source organism: Rickettsia conorii.
Experiment [4] has as its target HLA-B*15:01. The description is as above. As to conditions: source organism: Rickettsia sibirica 246.
The target of the next experiment is HLA-B*07:02. The description is as above. As to conditions: source organism: Rickettsia conorii.
In the next experiment the target is HLA-C*04:01. The description is as above. The settings on record: source organism: Rickettsia sibirica 246.
The target of the next experiment is HLA-A*02:16. Briefly: IEDB peptide-MHC binding, purified MHC/competitive/fluorescence; filed as Kd, often an IC50 or EC50 that approximates it; ≥ and ≤ were set here for values at or beyond the usual limits of such assays. The settings on record: source organism: Shigella dysenteriae Sd197.
Setting [5] is: source organism: Yersinia pestis Nepal516.
Setting [6] is: source organism: Mycobacterium tuberculosis variant bovis BCG str. Pasteur 1173P2.
Where [7] appears, read: source organism: human gammaherpesvirus 4.
The mark [8] stands for this setting: source organism: Francisella tularensis subsp. tularensis FSC198.
[9] abbreviates: source organism: Shigella dysenteriae Sd197.

Among the data in the Immune Epitope Database (IEDB) are Kd values, retold here.

Broadly, the Kd is the constant that tells how readily two partners part at equilibrium. Read a high Kd as lower affinity. In turn, ILKEYPQVY showed a Kd in the experiment with HLA-B*15:02 (source organism: Encephalitozoon cuniculi GB-M1) of 0.155 µM.
With MLYPLLWMF, the Kd was 0.968 µM with HLA-A*68:23 (setting [5]); 0.155 µM with HLA-A*32:15 (setting [5]); 3.57 µM in the experiment with HLA-C*06:02 (setting [5]); 0.406 µM with HLA-B*15:01 [1] (setting [5]); 3.5 µM with HLA-B*40:13 (setting [5]); 2.06 µM in the experiment with HLA-B*58:01. Moreover, the Kd with HLA-A*32:07 is 0.599 µM; with HLA-A*24:02, 0.0377 µM; with HLA-B*45:06 (setting [5]), not below 5 µM; with HLA-B*83:01 (setting [5]), not below 5 µM; in the experiment with HLA-B*15:42 (setting [5]), not below 5 µM; with HLA-A*02:01 (setting [5]) it was 0.169 µM.
In the case of AEDLADHHV, the Kd in the experiment with HLA-B*51:01 [2] (setting [6]), in the experiment with HLA-A*24:03 (setting [6]), in the experiment with HLA-B*39:01 (setting [6]), with HLA-A*02:19 (setting [6]), with HLA-B*18:01 (setting [6]) and in the experiment with HLA-A*26:01 (setting [6]) was not below 20 µM each time. Further, the Kd with HLA-B*57:01 (setting [6]) is not below 20 µM; with HLA-A*02:11 (setting [6]), 0.0131 µM; in the experiment with HLA-B*15:01 [1] (setting [6]), not below 20 µM; with HLA-A*03:01 (setting [6]), not below 20 µM; with HLA-A*23:01 (setting [6]), not below 20 µM; with HLA-B*46:01 (setting [6]), not below 20 µM. Further, the dissociation constant (Kd) in the experiment with HLA-B*15:17 (setting [6]), in the experiment with HLA-B*27:03 (setting [6]), with HLA-A*29:02 (setting [6]), with HLA-A*02:03 (setting [6]), in the experiment with HLA-A*02:12 (setting [6]) and with HLA-A*02:01 (setting [6]) was not below 20 µM in each case.
Take YAMAIRQAI: the Kd in the experiment with HLA-C*14:02 is 0.0426 µM; in the experiment with HLA-A*68:23 (setting [7]), 0.19 µM; in the experiment with HLA-A*32:15 (setting [7]), 0.092 µM; with HLA-B*27:20 it was 0.0299 µM; with HLA-C*06:02 (setting [7]) it was 0.101 µM; in the experiment with HLA-B*40:13 (setting [7]), 0.0239 µM. Besides, the Kd in the experiment with HLA-B*45:06 (setting [7]) is not below 5 µM; with HLA-B*83:01 (setting [7]) it was 1.02 µM; with HLA-B*15:42 (setting [7]), not below 5 µM; with HLA-C*05:01 (setting [7]), 2.23 µM; in the experiment with HLA-C*12:03 (setting [7]), not above 0.001 µM.
As for MIYNSFNPY, the Kd with HLA-B*15:02 (setting [8]) and with HLA-C*12:03 (setting [8]) was not below 20 µM in each case.
Turning to RMAMIPRTL, the Kd in the experiment with HLA-B*48:01 turned out to be 0.0873 µM.
Turning to FADSDNIAM, the Kd with HLA-B*51:01 [3] is not below 20 µM; with HLA-C*05:01 (source organism: Rickettsia sibirica 246) it was not above 0.001 µM; in the experiment with HLA-B*15:01 [4], not below 20 µM; with HLA-B*07:02, not below 20 µM; with HLA-C*04:01, not below 20 µM.
Consider IEDDEIIWV, for which the Kd with HLA-B*51:01 [2] (setting [9]), with HLA-A*24:03 (setting [9]), with HLA-A*02:16, with HLA-B*39:01 (setting [9]), with HLA-A*02:19 (setting [9]) and with HLA-B*18:01 (setting [9]) was not below 20 µM in each case. Also, the Kd with HLA-A*26:01 (setting [9]) is not below 20 µM; with HLA-B*57:01 (setting [9]), not below 20 µM; with HLA-A*02:11 (setting [9]), 0.0002 µM; with HLA-B*15:01 [1] (setting [9]) it was not below 20 µM; in the experiment with HLA-A*03:01 (setting [9]), not below 20 µM; with HLA-A*23:01 (setting [9]) it was not below 20 µM. The Kd in the experiment with HLA-B*46:01 (setting [9]), with HLA-B*15:17 (setting [9]), with HLA-B*27:03 (setting [9]), with HLA-A*29:02 (setting [9]), with HLA-A*02:03 (setting [9]) and in the experiment with HLA-A*02:12 (setting [9]) was not below 20 µM each time. This sequence also displayed a Kd with HLA-A*02:01 (setting [9]) not below 20 µM.
